From patent US20100150834A1 (BURNHAM INSTITUTE, published 2010) come the findings set out here.

The target of assay [1] is EphB1 (receptor of Table 1). Put plainly: EphB receptor specificity panel (% binding).
For assay [2], the target named is EphB2 (receptor of Table 1). Put plainly: EphB receptor specificity panel (% binding).
The target of assay [3] is EphB3 (receptor of Table 1). Put plainly: EphB receptor specificity panel (% binding).
Assay [4] concerns the target T1, EphB4 (receptor of Table 1) (Mus musculus (Mouse), UniProt P54761 16-539).
T1 sequence: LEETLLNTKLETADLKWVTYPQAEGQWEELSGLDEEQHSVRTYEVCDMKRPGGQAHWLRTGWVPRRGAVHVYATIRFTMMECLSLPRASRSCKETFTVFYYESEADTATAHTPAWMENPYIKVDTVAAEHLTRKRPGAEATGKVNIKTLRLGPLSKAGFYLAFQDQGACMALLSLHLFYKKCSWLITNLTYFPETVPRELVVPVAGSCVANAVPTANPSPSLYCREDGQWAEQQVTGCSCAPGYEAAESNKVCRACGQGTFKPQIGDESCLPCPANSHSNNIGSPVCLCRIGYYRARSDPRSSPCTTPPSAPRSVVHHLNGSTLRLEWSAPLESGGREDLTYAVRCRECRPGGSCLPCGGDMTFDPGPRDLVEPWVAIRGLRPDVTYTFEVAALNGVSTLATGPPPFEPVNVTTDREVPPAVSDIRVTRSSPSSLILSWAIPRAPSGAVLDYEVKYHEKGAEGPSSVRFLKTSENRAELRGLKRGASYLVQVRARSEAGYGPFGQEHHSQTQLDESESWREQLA
Put plainly: EphB receptor specificity panel (% binding).

For assay [5], the target named is EphB6 (receptor of Table 1). Kind of assay: EphB receptor specificity panel (% binding).
The target of assay [6] is T1, EphB4 (receptor of Table 1). Put plainly: inhibition of ephrin-B2 AP binding to EphB4 (panning receptor).

Where only a bound is given, the exact number is not on record here.

As to SHVGPIMRAWAP (Panned on EphB4) [SHVGPIMRAWAP peptide (SEQ ID NO:28)], the “% Binding” value in assay [1] was determined as 22%; in assay [2], 6%; in assay [3] it was 2%; in assay [4], 100%; in assay [5], 6%.

In the case of WGIPRAAQVMWT (Panned on EphB4) [WGIPRAAQVMWT peptide (SEQ ID NO:33)], the “% Binding” value in assay [1] was 16%; in assay [2] it was 17%; in assay [3] it was 20%; in assay [4], 100%; in assay [5], 14%.

A word on the IC50: it is the concentration that inhibits the measured activity by half. Read a low IC50 as higher potency. On to EWYMKFPPEHYF (Panned on EphB4) [EWYMKFPPEHYF peptide (SEQ ID NO:19)], for which the “% Binding” value in assay [1] turned out to be 22%; in assay [2], 23%; in assay [3] it was 23%; in assay [4], 100%; in assay [5] it was 30%. This molecule gave an IC50 in assay [6] greater than 600 µM.

As to IHWPVAPYSYLD (Panned on EphB2) [IHWPVAPYSYLD peptide (SEQ ID NO:11)], the “% Binding” value in assay [1] was determined as 97%; in assay [2], 100%; in assay [3] it was 4%; in assay [4], 4%; in assay [5], 7%.

As for DHWRVSPYSLLY (Panned on EphB2) [DHWRVSPYSLLY peptide (SEQ ID NO:13)], the “% Binding” value in assay [1] came to 100%; in assay [2], 97%; in assay [3] it was 1%; in assay [4] it was 0%; in assay [5], 1%.

DALNDWLLFRPW (Panned on EphB4) [DALNDWLLFRPW peptide (SEQ ID NO:20)]: the “% Binding” value in assay [1] amounted to 0%; in assay [2] it was 0%; in assay [3], 10%; in assay [4] it was 100%; in assay [5], 16%. For the same molecule, in assay [6], the IC50 is greater than 100 µM.

As for IPWTQHMAMSPM (Panned on EphB4) [… peptide (SEQ ID NO:34)], the “% Binding” value in assay [4] came out at 100%.

In the case of SHKFPGPPSWMS (Panned on EphB1) [SHKFPGPPSWMS peptide (SEQ ID NO:4)], the “% Binding” value in assay [1] turned out to be 88%; in assay [2] it was 100%; in assay [3], 10%; in assay [4], 9%; in assay [5], 0%.

Take EFFTWRPTYYGI (Panned on EphB4) [EFFTWRPTYYGI peptide (SEQ ID NO:23)]: the “% Binding” value in assay [1] was determined as 16%; in assay [2], 12%; in assay [3] it was 29%; in assay [4], 100%; in assay [5] it was 17%.

With TTLSQLPKSTWL (Panned on EphB1) [TTLSQLPKSTWL peptide (SEQ ID NO:2)], the “% Binding” value in assay [1] is 100%; in assay [2], 0%; in assay [3] it was 1%; in assay [4], 0%; in assay [5], 0%.

Take WHRYPDPRMLPT (Panned on EphB2) [WHRYPDPRMLPT peptide (SEQ ID NO:7)]: the “% Binding” value came to 54% in assay [1]; 100% in assay [2]; 31% in assay [3]; 13% in assay [4]; 15% in assay [5].

In the case of GPVHRAWEPTSH (Panned on EphB4) [GPVHRAWEPTSH peptide (SEQ ID NO:29)], the “% Binding” value in assay [1] is 4%; in assay [2], 6%; in assay [3], 16%; in assay [4], 100%; in assay [5] it was 7%.

Turning to DHWYYTPWQPIE (Panned on EphB2) [DHWYYTPWQPIE peptide (SEQ ID NO:9)], the “% Binding” value in assay [1] stood at 100%; in assay [2], 81%; in assay [3], 5%; in assay [4] it was 5%; in assay [5], 2%.

As to GPVADAWLVYPR (Panned on EphB4) [GPVADAWLVYPR peptide (SEQ ID NO:32)], the “% Binding” value worked out at 10% in assay [1]; 5% in assay [2]; 4% in assay [3]; 100% in assay [4]; 6% in assay [5].

Turning to SHWPVLPFAHWQ (Panned on EphB2) [SHWPVLPFAHWQ peptide (SEQ ID NO:12)], the “% Binding” value in assay [1] amounted to 98%; in assay [2], 100%; in assay [3], 9%; in assay [4], 6%; in assay [5], 10%.

Consider LPHGPVAAAWDA (Panned on EphB4) [LPHGPVAAAWDA peptide (SEQ ID NO:26)], for which the “% Binding” value was 2% in assay [1]; 15% in assay [2]; 2% in assay [3]; 100% in assay [4]; 4% in assay [5].

On to THWCHLLNCAAL (Panned on EphB2) [THWCHLLNCAAL peptide (SEQ ID NO:6)], for which the “% Binding” value turned out to be 100% in assay [1]; 89% in assay [2]; 85% in assay [3]; 20% in assay [4]; 26% in assay [5].

Consider DHWPLLPYALAH (Panned on EphB2) [… peptide (SEQ ID NO:16)], for which the “% Binding” value in assay [1] is 4%; in assay [2], 100%; in assay [3] it was 7%; in assay [4], 0%; in assay [5] it was 0%.

For SGHQLLLNKMPN (Panned on EphB4) [SGHQLLLNKMPN peptide (SEQ ID NO:35)], the “% Binding” value in assay [4] came to 100%.

Turning to GPVERAWRPDLI (Panned on EphB4) [GPVERAWRPDLI peptide (SEQ ID NO:30)], the “% Binding” value in assay [1] was 1%; in assay [2], 2%; in assay [3], 1%; in assay [4], 100%; in assay [5], 3%.

Turning to NHWPTQPYAIPI (Panned on EphB2) [NHWPTQPYAIPI peptide (SEQ ID NO:15)], the “% Binding” value in assay [1] was found to be 18%; in assay [2] it was 100%; in assay [3] it was 22%; in assay [4], 22%; in assay [5], 0%.

For THWKFQPWALVT (Panned on EphB1) [THWKFQPWALVT peptide (SEQ ID NO:5)], the “% Binding” value turned out to be 86% in assay [1]; 100% in assay [2]; 5% in assay [3]; 0% in assay [4]; 0% in assay [5].

With GPVSKAWQETET (Panned on EphB4) [GPVSKAWQETET peptide (SEQ ID NO:31)], the “% Binding” value was 13% in assay [1]; 13% in assay [2]; 14% in assay [3]; 100% in assay [4]; 16% in assay [5].

As to WPPHWPRSLDYA (Panned on EphB2) [WPPHWPRSLDYA peptide (SEQ ID NO:17)], the “% Binding” value in assay [1] stood at 0%; in assay [2], 100%; in assay [3], 0%; in assay [4], 0%; in assay [5], 0%.
